Results taken from patent US20180271960A1, “METHOD TO TREAT CANCER USING ARGININE DELPETOR AND ORNITHINE DECARBOXYLASE (ODC) INHIBITOR” (Bio-Cancer Treatment International Ltd., priority 2015, published 2018).
Entries after “also recorded” stand apart in the source; their conditions may differ.

Assays:
[1] = tested on: H1650 lung adenocarcinoma xenografts; assay: H1650 lung adenocarcinoma xenograft; assay type: in vivo, BALB/c nude mice; settings: for median survival: PEG-BCT-100 20 mg/kg IP twice a week
Procedure: (§1) In one example embodiment, ten million lung adenocarcinoma cells from cell lines H1650, H1975, and HCC4006 are engrafted subcutaneously in BALB/cnude mice (4 weeks old with body weight of 10-14 g). Body weight, clinical signs and survival times are recorded.
(§2) Two groups of the mice, with eight mice in each group, are tested. Control group (negative control) receives physiological saline and treatment group receives 20 mg/kg of PEG-BCT-100. PEG-BCT-100 is administered via intraperitoneal (IP) injection, twice weekly, until euthanization.
(§3) In one example embodiment, ten million lung adenocarcinoma cells from cell lines H1650, H1975 and HCC4006 are engrafted subcutaneously in BALB/cnude mice (4 weeks old with body weight of 10-14 g). Body weight, clinical signs and survival times are recorded.
(§4) Four groups of the mice, with eight mice in each group, are tested. Control group (negative control) receives physiological saline, and the three treatment groups respectively receive 20 mg/kg of PEG-BCT-100 alone, 2% w/v DFMO in drinking water, and combination of 20 mg/kg of PEG-BCT-100 and 2% w/v DFMO. PEG-BCT-100 is administered intraperitoneally, twice a week, until euthanization while DFMO is supplied in drinking water at 2% w/v.

[2] = tested on: H1975 lung adenocarcinoma xenografts; assay: H1975 lung adenocarcinoma xenograft; assay type: in vivo, BALB/c nude mice; settings: for median survival: PEG-BCT-100 20 mg/kg IP twice a week
Procedure: as §1, §2, §3, §4

[3] = tested on: SU-DHL-10 B cell lymphoma xenograft; assay: SU-DHL-10 B cell lymphoma xenograft model; assay type: in vivo, mouse; settings: SU-DHL-10 xenograft; PEG-BCT-100 20 mg/kg IV twice a week; DFMO 2% w/v in drinking water
Procedure: In one example embodiment, SU-DHL-10 human lymphoma cells are maintained in vitro culture in RPMI1640 medium supplemented with 20% fetal bovine serum at 37° C. in an atmosphere of 5% CO2 in air. The tumour cells are routinely sub-cultured twice weekly. The cells in an exponential growth phase are harvested and counted for tumour inoculation.
One day before tumour inoculation, all mice are sub-lethally irradiated with 60Co (200 rad). Each mouse is inoculated subcutaneously at the right flank region with SU-DHL-10 tumour cells (1×10^7) in 0.1 ml of PBS/Matrigel (1:1) for tumour development. The treatments start when the mean tumour volume reached 116 mm^3. The date of tumour cell inoculation is denoted as day 0.
as §4, with “Four treatment” for “Four”, “animals,” for “the mice,”, “animals” for “mice”, “saline,” for “saline, and the three treatment groups respectively receive”, “intravenously,” for “intraperitoneally,”

K-562 leukemia xenograft = K-562 leukemia xenograft model; assay type: in vivo, mouse; settings: K-562 xenograft; PEG-BCT-100 20 mg/kg IV twice a week; DFMO 2% w/v in drinking water
Procedure: (§5) In one example embodiment, the K-562 tumour cells are maintained in vitro as a suspension culture in RPMI1640 medium supplemented with 10% heat inactivated fetal bovine serum at 37° C. in an atmosphere of 5% CO2 in air. The tumour cells are routinely sub-cultured twice weekly. The cells growing in an exponential growth phase are harvested and counted for tumour inoculation.
Each mouse is inoculated subcutaneously at the right flank region with K-562 tumour cells (5×10^6) in 0.1 ml of PBS/Matrigel (1:1) for tumour development. The treatments start when the mean tumour size reaches 125 mm^3. The date of tumour cell inoculation is denoted as day 0.
as §4, with “Four treatment” for “Four”, “animals,” for “the mice,”, “animals” for “mice”, “intravenously,” for “intraperitoneally,”

[4] = tested on: Hep 3B hepatocellular carcinoma xenograft; assay: Hep 3B hepatocellular carcinoma xenograft model; assay type: in vivo, mouse; settings: Hep 3B xenograft; PEG-BCT-100 20 mg/kg IV twice a week; DFMO 2% w/v in drinking water
Procedure: as §5, with “Hep 3B” for “K-562”, “vitro” for “vitro as a suspension”, “EMEM” for “RPMI1640”
Each mouse is inoculated subcutaneously at the right flank region with Hep 3B tumour cells (5×10^6) in 0.1 ml of PBS (1:1 Matrigel) for tumour development. The treatments start when the mean tumour size reaches 119 mm^3. The date of tumour cell inoculation is denoted as day 0.
as §4, with “Four treatment” for “Four”, “animals,” for “the mice,”, “animals” for “mice”, “intravenously,” for “intraperitoneally,”

[5] = tested on: MIA-PaCa-2 pancreatic cancer xenograft; assay: MIA-PaCa-2 pancreatic cancer xenograft model; assay type: in vivo, mouse; settings: MIA-PaCa-2 xenograft; PEG-BCT-100 20 mg/kg IV twice a week; DFMO 2% w/v in drinking water
Procedure: as §5, with “MIA-PaCa-2” for “K-562”, “vitro” for “vitro as a suspension”, “EMEM” for “RPMI1640”
Each mouse is inoculated subcutaneously at the right flank region with MIA-PaCa-2 tumour cells (5×10^6) in 0.1 ml of PBS (1:1 Matrigel) for tumour development. The treatments start when the mean tumour size reaches 124 mm^3. The date of tumour cell inoculation was denoted as day 0.
as §4, with “Four treatment” for “Four”, “animals,” for “the mice,”, “animals” for “mice”, “intravenously,” for “intraperitoneally,”

[6] = tested on: CAPAN-1 pancreatic cancer xenograft; assay: CAPAN-1 pancreatic cancer xenograft model; assay type: in vivo, mouse; settings: CAPAN-1 xenograft; PEG-BCT-100 20 mg/kg IV twice a week; DFMO 2% w/v in drinking water
Procedure: as §5, with “CAPAN-1” for “K-562”, “vitro” for “vitro as a suspension”, “EMEM” for “RPMI1640”
Each mouse is inoculated subcutaneously at the right flank region with CAPAN-1 tumour cells (5×10^6) in 0.1 ml of PBS (1:1 Matrigel) for tumour development. The treatments start when the mean tumour size reaches 119 mm^3. The date of tumour cell inoculation is denoted as day 0.
as §4, with “Four treatment” for “Four”, “animals,” for “the mice,”, “animals” for “mice”, “intravenously,” for “intraperitoneally,”

[7] = PEG-BCT-100 20 mg/kg IP twice weekly, DFMO 2% w/v in drinking water, 20 mg/kg
[8] = PEG-BCT-100 20 mg/kg vs control arm
[9] = PEG-BCT-100 20 mg/kg vs control arm, 20 mg/kg

NCCC[C@](N)(C(=O)O)C(F)F [DFMO, α-difluoromethylornithine, reference compound]
median survival ([1]; DFMO 2% w/v in drinking water): 17 days
median survival ([2]; DFMO 2% w/v in drinking water): 18 days
anti-tumour effect [3]: no significant anti-tumour effect
anti-tumour effect (K-562 leukemia xenograft): no significant anti-tumour effect
anti-tumour effect [4]: significant anti-tumour effect
anti-tumour effect [5]: significant anti-tumour effect
anti-tumour effect [6]: no significant anti-tumour effect

B1: PEG-BCT-100: pegylated recombinant human arginase I (SEQ ID NO.1, or SEQ ID NO.3 with six histidines), about 6-12 PEG molecules per arginase (protein, UniProt P05089 1-322, looked up)
Arginase-1: MSAKSRTIGIIGAPFSKGQPRGGVEEGPTVLRKAGLLEKLKEQECDVKDYGDLPFADIPNDSPFQIVKNPRSVGKASEQLAGKVAEVKKNGRISLVLGGDHSLAIGSISGHARVHPDLGVIWVDAHTDINTPLTTTSGNLHGQPVSFLLKELKGKIPDVPGFSWVTPCISAKDIVYIGLRDVDPGEHYILKTLGIKYFSMTEVDRLGIGKVMEETLSYLLGRKKRPIHLSFDVDGLDPSFTPATGTPVVGGLTYREGLYITEEIYKTGLLSGLDIMEVNPSLGKTPEEVTRTVNTAVAITLACFGLAREGNHKPIDYLNPPK
modifications: PEG, about 6-12 per arginase; optional His6 tag
median survival ([1]; DFMO 2% w/v in drinking water): 10 days
tumour growth [1, 7]: induces lung adenocarcinoma proliferation; also recorded: promotes tumour growth
in vivo ASS1 expression (Western blot) [1, 8]: remains unchanged
in vivo ODC expression (Western blot) [1, 9]: increases; also recorded: over-expressed; also recorded: upregulated
median survival ([2]; DFMO 2% w/v in drinking water): 15 days
tumour growth [2, 7]: induces lung adenocarcinoma proliferation; also recorded: promotes tumour growth
in vivo ASS1 expression (Western blot) [2, 8]: decreases
in vivo ODC expression (Western blot) [2, 9]: increases; also recorded: over-expressed; also recorded: upregulated
anti-tumour effect [3]: slightly promotes SU-DHL-10 tumour growth
anti-tumour effect (K-562 leukemia xenograft): no significant anti-tumour effect
anti-tumour effect [4]: does not produce a significant anti-tumour effect
anti-tumour effect [5]: do not produce a significant anti-tumour effect
anti-tumour effect [6]: no significant anti-tumour effect
